Experimental data: US20230056470A1, “USES OF ANTI-TGF-BETA ANTIBODIES AND CHECKPOINT INHIBITORS FOR THE TREATMENT OF PROLIFERATIVE DISEASES” (NOVARTIS AG, priority 2019, published 2023)

Experiments:
[1] = Clinical PK of NIS793, study CNIS793X2101 (single agent and combination with PDR001; escalation and expansion; cycles 1 and 3); assay type: in vivo, human
[2] = Population PK analysis and model-based simulations of NIS793 (dose escalation phase of CNIS793X2101); set-up: species or system human
Description: This is consistent with the observation that NIS793 PK appears dose proportional and time-independent based on the non-compartmental analyses.
Further a dose of 1400 mg would also match exposure observed at 20 mg/kg.

[3] = Clinical PK of PDR001 in combination with NIS793, study CNIS793X2101; assay type: in vivo, human; conditions: 100 or 300 mg Q3W and 400 mg Q4W
[4] = Mean, cycle 1, NIS793 0.3 mg/kg Q3W + PDR 100 mg Q3W, escalation
[5] = Mean, cycle 1, NIS793 0.3 mg/kg Q3W + PDR 300 mg Q3W, escalation
[6] = Mean, cycle 1, NIS793 0.3 mg/kg Q3W Liquid, single agent, escalation
[7] = Mean, cycle 1, NIS793 1 mg/kg Q3W + PDR 300 mg Q3W, escalation
[8] = Mean, cycle 1, NIS793 1 mg/kg Q3W Liquid, single agent, escalation
[9] = Mean, cycle 1, NIS793 1 mg/kg Q3W Lyophilisate, single agent, escalation
[10] = Mean, cycle 1, NIS793 3 mg/kg Q3W + PDR 300 mg Q3W, escalation
[11] = Mean, cycle 1, NIS793 10 mg/kg Q3W + PDR 300 mg Q3W, escalation
[12] = Mean, cycle 1, NIS793 20 mg/kg Q2W + PDR 400 mg Q4W, escalation
[13] = Mean, cycle 1, NIS793 30 mg/kg Q2W + PDR 400 mg Q4W, escalation
[14] = Mean, cycle 1, NIS793 30 mg/kg Q3W + PDR 300 mg Q3W, escalation
[15] = cycle 1, NIS793 2100 mg Q3W + PDR 300 mg Q3W, MSS-CRC, expansion, mean
[16] = cycle 1, NIS793 2100 mg Q3W + PDR 300 mg Q3W, NSCLC, expansion, mean
[17] = cycle 3, NIS793 0.3 mg/kg Q3W + PDR 100 mg Q3W, escalation, mean
[18] = cycle 3, NIS793 0.3 mg/kg Q3W + PDR 300 mg Q3W, escalation, mean
[19] = cycle 3, NIS793 0.3 mg/kg Q3W Liquid, single agent, escalation, mean
[20] = cycle 3, NIS793 1 mg/kg Q3W + PDR 300 mg Q3W, escalation, mean
[21] = cycle 3, NIS793 1 mg/kg Q3W Liquid, single agent, escalation, mean
[22] = cycle 3, NIS793 1 mg/kg Q3W Lyophilisate, single agent, escalation, mean
[23] = cycle 3, NIS793 3 mg/kg Q3W + PDR 300 mg Q3W, escalation, mean
[24] = cycle 3, NIS793 10 mg/kg Q3W + PDR 300 mg Q3W, escalation, mean
[25] = cycle 3, NIS793 20 mg/kg Q2W + PDR 400 mg Q4W, escalation, mean
[26] = cycle 3, NIS793 30 mg/kg Q3W + PDR 300 mg Q3W, escalation, mean
[27] = cycle 3, NIS793 2100 mg Q3W + PDR 300 mg Q3W, MSS-CRC, expansion, mean (SD)

Substance: NIS793: fully human IgG2, human/mouse cross-reactive, TGF-β-neutralizing antibody; heavy and light chain SEQ ID NOs: 9 and 10
- Increase in NIS793 exposure (Cycle 1 Cmax and AUClast) with dose ([1]; 30 minute intravenous infusion, 0.3 mg/kg to 30 mg/kg): approximately dose-proportional increase
- AUClast [1, 4]: 1360000 ng·h/mL
- Clast [1, 4]: 1400 ng/mL
- Cmax [1, 4]: 6440 ng/mL
- AUClast [1, 5]: 1700000 ng·h/mL
- Clast [1, 5]: 1530 ng/mL
- Cmax [1, 5]: 11200 ng/mL
- AUClast [1, 6]: 1140000 ng·h/mL
- Clast [1, 6]: 1060 ng/mL
- Cmax [1, 6]: 7180 ng/mL
- AUClast [1, 7]: 5850000 ng·h/mL
- Clast [1, 7]: 8790 ng/mL
- Cmax [1, 7]: 30800 ng/mL
- AUClast [1, 8]: 4170000 ng·h/mL
- Clast [1, 8]: 4320 ng/mL
- Cmax [1, 8]: 24900 ng/mL
- AUClast [1, 9]: 4770000 ng·h/mL
- Clast [1, 9]: 4780 ng/mL
- Cmax [1, 9]: 27600.0 ng/mL
- AUClast [1, 10]: 11400000 ng·h/mL
- Clast [1, 10]: 14300 ng/mL
- Cmax [1, 10]: 58400 ng/mL
- AUClast [1, 11]: 3750000 ng·h/mL
- Clast [1, 11]: 44800 ng/mL
- Cmax [1, 11]: 181000 ng/mL
- AUClast [1, 12]: 54500000 ng·h/mL
- Clast [1, 12]: 107000 ng/mL
- Cmax [1, 12]: 333000 ng/mL
- AUClast [1, 13]: 69100000 ng·h/mL
- Clast [1, 13]: 154000 ng/mL
- Cmax [1, 13]: 439000 ng/mL
- AUClast [1, 14]: 90900000 ng·h/mL
- Clast [1, 14]: 133000 ng/mL
- Cmax [1, 14]: 519000 ng/mL
- AUClast [1, 15]: 94700000 ng·h/mL
- Clast [1, 15]: 206000 ng/mL
- Cmax [1, 15]: 547000 ng/mL
- AUClast [1, 16]: 140000000 ng·h/mL
- Clast [1, 16]: 180000 ng/mL
- Cmax [1, 16]: 743000 ng/mL
- AUClast [1, 17]: 2530000 ng·h/mL
- Clast [1, 17]: 2960 ng/mL
- Cmax [1, 17]: 8990 ng/mL
- AUClast [1, 18]: 2960000 ng·h/mL
- Clast [1, 18]: 3330 ng/mL
- Cmax [1, 18]: 11600 ng/mL
- AUClast [1, 19]: 1820000 ng·h/mL
- Clast [1, 19]: 1900 ng/mL
- Cmax [1, 19]: 8750 ng/mL
- AUClast [1, 20]: 5630000 ng·h/mL
- Clast [1, 20]: 9710 ng/mL
- Cmax [1, 20]: 31300 ng/mL
- AUClast [1, 21]: 2910000 ng·h/mL
- Clast [1, 21]: 4290 ng/mL
- Cmax [1, 21]: 9830 ng/mL
- AUClast [1, 22]: 4090000 ng·h/mL
- Clast [1, 22]: 6350 ng/mL
- Cmax [1, 22]: 13800 ng/mL
- AUClast [1, 23]: 13900000 ng·h/mL
- Clast [1, 23]: 16100 ng/mL
- Cmax [1, 23]: 55200 ng/mL
- AUClast [1, 24]: 69200000 ng·h/mL
- Clast [1, 24]: 95900 ng/mL
- Cmax [1, 24]: 220000 ng/mL
- AUClast [1, 25]: 149000000 ng·h/mL
- Clast [1, 25]: 154000 ng/mL
- Cmax [1, 25]: 524000 ng/mL
- AUClast [1, 26]: 242000000 ng·h/mL
- Clast [1, 26]: 228000 ng/mL
- Cmax [1, 26]: 713000 ng/mL
- AUClast [1, 27]: 95500000 (88500000) h*ng/mL
- Clast [1, 27]: 341000 (313000) ng/mL
- Cmax [1, 27]: 590000 (319000) ng/mL
- Between subject variability (CV %) for Cmax ([1]; patients, across dose cohorts): 12.1 to 73.3%
- Population PK model that describes NIS793 pharmacokinetics ([2]; dose escalation concentration data): two compartment model with first order elimination from the central compartment
- Estimated exponent of body weight as covariate on clearance (power model) ([2]; population PK model, CV %=40%): 0.55

Substance: PDR001: anti-PD-1 inhibitor spartalizumab, also known as PDR001 (Novartis)
- PK of PDR001 in combination with NIS793 versus single agent data [3]: appears to be similar to the single agent data
